From article doi:10.1101/505453

Target: Oryza sativa hyperosmolality-gated protein OsOSCA1.2 (Oryza sativa (rice))
Assay: SEC-MALS

stoichiometry N: 2
Substance: Oryza sativa hyperosmolality-gated protein OsOSCA1.2 (natural protein)
